The text below walks through data of publication PMC11687654.

Experiment [1] has as its target TDP-43-flag (pcDNA3.1 construct) (UniProt Q13148). Nature of the experiment: AlphaScreen or HTRF; proximity AlphaLISA on lysates of co-transfected HEK293FT cells, 72 hr after transfection; anti-FLAG acceptor beads, biotinylated Ataxin-2 antibody and streptavidin donor beads; room temperature. Background: In Alpha technology, singlet oxygen from a donor bead excites a nearby acceptor bead.

In experiment [2] the target is TDP-43mutRRM-flag (pcDNA3.1 construct) (UniProt Q13148). Described as above.
Sequence of TDP-43mutRRM-flag (pcDNA3.1 construct) (Q13148 whole entry): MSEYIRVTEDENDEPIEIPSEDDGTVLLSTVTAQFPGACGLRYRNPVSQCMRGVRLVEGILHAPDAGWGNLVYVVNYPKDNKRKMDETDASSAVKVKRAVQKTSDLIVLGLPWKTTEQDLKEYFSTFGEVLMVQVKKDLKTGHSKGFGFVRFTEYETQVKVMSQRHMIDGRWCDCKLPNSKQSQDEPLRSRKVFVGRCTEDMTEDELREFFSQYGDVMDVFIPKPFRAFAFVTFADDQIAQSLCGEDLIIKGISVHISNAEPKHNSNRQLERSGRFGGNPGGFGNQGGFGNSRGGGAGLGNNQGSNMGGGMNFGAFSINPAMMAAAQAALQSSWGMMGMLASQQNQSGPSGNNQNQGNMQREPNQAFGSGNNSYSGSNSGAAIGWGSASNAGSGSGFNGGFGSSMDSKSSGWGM

Sequence of Ataxin-2 (ATXN2, pcDNA3.1 construct) (Q99700 whole entry): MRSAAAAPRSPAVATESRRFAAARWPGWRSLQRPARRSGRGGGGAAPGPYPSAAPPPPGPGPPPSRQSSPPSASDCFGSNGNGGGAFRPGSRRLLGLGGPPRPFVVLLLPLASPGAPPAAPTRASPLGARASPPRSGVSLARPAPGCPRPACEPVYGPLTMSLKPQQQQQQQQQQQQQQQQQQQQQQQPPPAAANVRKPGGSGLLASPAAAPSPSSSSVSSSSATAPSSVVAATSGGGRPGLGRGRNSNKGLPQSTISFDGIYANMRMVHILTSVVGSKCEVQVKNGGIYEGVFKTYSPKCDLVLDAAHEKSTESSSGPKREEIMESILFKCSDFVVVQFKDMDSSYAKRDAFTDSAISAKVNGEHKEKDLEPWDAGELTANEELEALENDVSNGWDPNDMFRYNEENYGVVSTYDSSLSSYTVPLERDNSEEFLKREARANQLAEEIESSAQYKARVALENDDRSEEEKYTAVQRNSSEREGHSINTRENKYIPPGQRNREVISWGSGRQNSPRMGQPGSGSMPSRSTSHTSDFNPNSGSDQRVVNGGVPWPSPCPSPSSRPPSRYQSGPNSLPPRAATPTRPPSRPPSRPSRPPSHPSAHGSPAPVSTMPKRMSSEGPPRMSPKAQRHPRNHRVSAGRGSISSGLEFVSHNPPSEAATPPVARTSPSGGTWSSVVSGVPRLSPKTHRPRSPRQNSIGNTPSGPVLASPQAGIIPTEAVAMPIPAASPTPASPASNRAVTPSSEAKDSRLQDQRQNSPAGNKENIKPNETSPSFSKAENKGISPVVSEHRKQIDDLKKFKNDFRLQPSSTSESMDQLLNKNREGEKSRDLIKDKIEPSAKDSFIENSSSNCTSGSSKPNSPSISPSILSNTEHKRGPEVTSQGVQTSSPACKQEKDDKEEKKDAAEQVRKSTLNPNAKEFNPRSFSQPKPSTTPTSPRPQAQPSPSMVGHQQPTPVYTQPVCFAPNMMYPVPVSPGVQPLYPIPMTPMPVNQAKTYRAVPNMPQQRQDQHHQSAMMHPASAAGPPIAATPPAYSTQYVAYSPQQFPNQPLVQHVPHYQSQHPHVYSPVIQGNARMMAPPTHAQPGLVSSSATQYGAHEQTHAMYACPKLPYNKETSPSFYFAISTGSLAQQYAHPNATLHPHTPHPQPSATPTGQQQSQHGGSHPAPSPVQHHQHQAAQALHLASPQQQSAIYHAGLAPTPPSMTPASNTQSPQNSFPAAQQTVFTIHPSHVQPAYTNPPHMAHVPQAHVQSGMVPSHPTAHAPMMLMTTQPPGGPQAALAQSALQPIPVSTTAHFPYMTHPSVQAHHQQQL
Sequence of TDP-43-flag (pcDNA3.1 construct) (Q13148 whole entry): as the sequence (Q13148 whole entry) above

“Ataxin-2 (ATXN2, pcDNA3.1 construct) (from UniProt Q99700 1-1313) (natural protein)”: the fold increase of the AlphaLISA interaction signal in experiment [1] is 22 fold; in experiment [2], 2 fold.
